From patent publication US20230071019A1 (RESEARCH FOUNDATION FOR THE STATE UNIVERSITY OF NEW YORK, published 2023) come the findings set out here.

One test addresses T1, avidin (UniProt P02701 25-152).
T1 construct: Negative-control coat; also called avidin alone
The test is described as follows: phage ELISA on avidin coat without biotin-DM1.

The target in test [1] is T2, ado-trastuzumab emtansine.
T2 construct: Antibody-drug conjugate immobilised on a CM5 SPR chip; also called TDM1; T-DM1
Put plainly: SPR, kinetic assessment, immobilized T-DM1. For orientation: In SPR one partner is held on a chip, and binding of the other changes the refractive index at the surface.

Test [2] deals with T2, ado-trastuzumab emtansine. Put plainly: SPR, equilibrium binding, TDM1 on a CM5 chip, 3A2 injected at 1.25-400 nM. How it is done: (§1) Preliminary screening of DM1/4 binders were performed using a neutravidin SPR chip with DM1-Biotin on the left channel. Phagemid purified sdAbs were flowed over the SPR chip for 2 minutes at a flow rate of 25 ul/min. After binding, sdAb was dissociated for 20 minutes. Observed sensorgrams were fit to an individual dissociation rate constant for each construct. Equilibrium and kinetic binding of 3A2 was assessed using a CM5 SPR chip with TDM1 immobilized on the left channel. […] Rate constants for 3A2-TDM1 association and dissociation were obtained through fitting of the observed sensorgrams for the 1.25, 2.5, 5, 7.5 and 10 nM injections to a 1:1 Langmuir binding model.
(§2) Anti-DM1/DM4 sdAb DF3A2 clone. […] DNA encoding for 3A2 was synthesized and expressed in the E. coli strain SHuffle and purified using nickel chromatography. Purified 3A2 was used to assess TDM1 binding using SPR. […] To obtain a secondary measure of binding kinetics sdAb injected at concentrations between 1.25-10 nM were fit to a 1:1 Langmuir binding model to obtain association and dissociation rate constants.

Test [3] deals with T2, ado-trastuzumab emtansine. The test is described as follows: SPR, kinetic fit (1:1 Langmuir), TDM1 on a CM5 chip, 3A2 injected at 1.25-10 nM. How it is done: as §1, §2
Test [4] deals with T3, Cetuximab-calicheamicin conjugate.
T3 construct: also called Cetuximab-calicheamcin conjugate; ADC (coated ELISA)
Put plainly: competitive ELISA on cetuximab-calicheamicin coated plates, corrected for background. How it is done:
(§3) Nunc Maxisorp 96-well plates were coated with 4 μg/ml Cetuximab or Cetuximab-calicheamicin, or 5 μg/ml Avidin. Plates were washed three times with PBST and three times with dH2O, and blocked with MPBS for 2 h at RT. For the Avidin coated plates, plates were washed three times with PBST and incubated with 1 μM Biotin-Calicheamcin. […] Plates were then washed three times with PBST, where bound sdAb was detected using an anti-His tag HRP-conjugated Ab diluted 1:1000 in MPBST. Following incubated and five washed with PBST, 100 μL of 1-Step Turbo TMB-ELISA solution was added to each well and incubated for 30 minutes. The reaction was quenched by adding 100 μL of Stop solution to each well and absorbance was measured at 450 nm. Alternatively, wells can also be incubated with 1:1000 diluted anti-His tag AP-conjugated Ab, instead of HRP conjugated Ab.
In general terms: ELISA stands for enzyme-linked immunosorbent assay.

In another test the target is T4, cetuximab.
T4 construct: not shown: the constant regions
Put plainly: ELISA, purified CG4 on unconjugated cetuximab coat, anti-His HRP detection. How it is done: as §3

In test [5] the target is T3, Cetuximab-calicheamicin conjugate. Put plainly: competitive ELISA on cetuximab-calicheamicin coated plates, 64 µM CG4 with or without 10 µM free calicheamicin. How it is done:
as §3

Another test deals with T5, exatecan conjugated BSA (bovine, UniProt P02769 25-607, exatecan conjugated to BSA; chemistry and sites not stated).
T5 construct: Hapten-carrier conjugate immobilised on the SPR chip; also called BSA conjugated Exatecan
T5 sequence (P02769 25-607 limits assumed): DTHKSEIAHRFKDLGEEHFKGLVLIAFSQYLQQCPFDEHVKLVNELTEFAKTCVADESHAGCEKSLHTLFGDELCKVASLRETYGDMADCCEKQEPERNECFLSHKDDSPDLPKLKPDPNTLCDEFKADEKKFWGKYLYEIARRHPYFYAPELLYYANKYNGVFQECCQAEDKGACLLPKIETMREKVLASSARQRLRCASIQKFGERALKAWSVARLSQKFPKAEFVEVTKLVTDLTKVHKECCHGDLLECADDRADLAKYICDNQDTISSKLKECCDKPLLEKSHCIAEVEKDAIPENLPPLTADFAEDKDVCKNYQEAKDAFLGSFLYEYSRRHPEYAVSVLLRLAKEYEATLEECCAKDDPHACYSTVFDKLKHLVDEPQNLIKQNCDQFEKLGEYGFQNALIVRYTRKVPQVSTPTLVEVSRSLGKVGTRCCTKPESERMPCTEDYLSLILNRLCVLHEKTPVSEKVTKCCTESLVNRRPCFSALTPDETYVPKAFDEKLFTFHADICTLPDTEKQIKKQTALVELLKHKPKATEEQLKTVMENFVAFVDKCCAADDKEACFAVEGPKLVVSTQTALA
Put plainly: SPR, kinetic fit, BSA-conjugated exatecan on the chip.

T1 sequence (P02701 25-152 limits assumed): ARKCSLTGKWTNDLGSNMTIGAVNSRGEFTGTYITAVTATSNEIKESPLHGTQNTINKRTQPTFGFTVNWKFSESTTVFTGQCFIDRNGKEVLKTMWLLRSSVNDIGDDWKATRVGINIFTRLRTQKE

B1: T3B4 (VHH)
VHH: QVQLQESGGGLVQAGDSLRLSCTASGRTFSRYTMGWFRQAPGKEREFVAAISTGGLRQYFGDSVRGRCTISRDNAKNTVYLQMDSLKPEDTAVYYCAATGNEYHWGRGTQVTVSS
notes: tested as phage media; also called DT3B4
With B1, the binding result with avidin is reported as “no binding”.

B2: Anti-DM1/DM4 sdAb DF4B12 clone (VHH)
VHH: EVQLVESGGGLVQPGGSLRLSCAASGSIFGISYMGWYRQAPGKQREPVALITSGGDTAYGDSVKGRFTISRDNAKNTVYLQMNSLTPEDTSTFYCAAGFYRSDSPNRYDYWGQGTQVTVSS
notes: Purified sdAb; tag not described
In the case of B2, in test [1], binding was characterised by a dissociation constant (Kd) of 0.00433 µM. Besides, the binding result with avidin is given as “no binding”.

B3: Anti-DM1/DM4 sdAb DF3A2 clone (VHH)
VHH: QVQLQESGGGLVQPGGSLRLSCAASGGIFGISYMGWYRQAPGKQREPVALITSGGDTAYGDSVKGRFAISRDNAKNTVYLQMNSLKPDDTSAYYCAAGFYRSDSPNRYDYWGQGTQVTVSS
notes: also called sdAb 3A2
Regarding B3, the binding result with avidin is “no binding”. Besides, the dissociation constant (Kd) (in general, a measure of binding affinity in units of concentration) in test [2] stood at 0.025 µM; in test [3] it was 0.0123 µM.

B4: Anti-DM1/DM4 sdAb DF3A4 clone (VHH)
VHH: QVQLQESGGGLVQPGGSLRLSCAASGSIFGISYMGWYRQAPGKQREPVALITSGGSTYYADSVKGRVTISRDNAKKTVYLQMNSLRPEDTSTYYCAAGFYRSDSPNRYDYWGQGTQVTVSS
notes: as for B2
For the molecule B4, in test [1], the dissociation constant (Kd) amounted to 0.00559 µM. Further, the binding result with avidin is recorded as “no binding”.

B5: Anti-Calicheamicin sdAb CG4 clone (VHH)
VHH: QVQLQESGGGLVQAGGSLRLSCAASGRTISGYAMGWFRQAPGKERDLVAAISRSGTSTYYADSVKGRFTISRDNAKNTVYLQMNSLKPEDTAVYYCNAPGGIWGQGTQVTVSS
Consider B5, for which, in test [4], the “fold decrease of ELISA signal on addition of 10 µM free calicheamicin, corrected for background” value is ~3.3 fold. Further, the binding result with cetuximab is recorded as “binds”. In addition, the “fold decrease of ELISA signal on addition of 10 µM free calicheamicin” value in test [5] was determined as 2.5 fold.

B6: Anti-Exatecan sdAb TF7 clone (VHH)
VHH: QVQLQESGGGLAQPGGSLRVSCATSGFTFSSNYYISWVRQAPGRGLEWVSAINTGDGSTYYAHSVKGRFTISRDNAKNTLYLQMNSLKPEDTALYYCARSSLEGRIEKPYDYWGQGTQVTVSS
notes: Llama single domain antibody; also called anti-camptothecin sdAb (TF7)
In the test with exatecan conjugated BSA, B6 came in with a Kd of 0.01 µM.

B7: T3B5 (VHH)
VHH: QVQLVQSGGGLVQPGGSLRLSCTASGRTFSRYTMGWFRQAPGKEREFVAAISTGGLRQYFGDSVRGRCTISRDNAKSTVYLQMDSLKPEDTAVYYCAANWGTSYYWGQGTQVTVSS
notes: tested as phage media; also called DT3B5
With B7, the binding result with avidin is recorded as “no binding”.

B8: T3B3 (VHH)
VHH: EVQLVESGGGLVQAGGSLRLSCALSGGTLRSYTMGWIRQAPGKEREFVAGNRWSGGRTYYADSVKGRFTISGDNAENTVYLQMNSLKPEDTAVYYCTADVTEYGEDSSAYWGRGTQVTVSS
notes: tested as phage media; also called DT3B3
Regarding B8, in the test with avidin, the binding result is given as “no binding”.

B9: T3H3 (VHH)
VHH: EVQLVESGGGLVQPGGSLRLSCAASGRTFSHDHMGWFRQAPGKEREFVAAISWTSSTYYGDSVKGRFTISRSNAKNTVYLQMNSLKPEDTAIYYCSWGVGYWGQGTQVTVSS
notes: tested as phage media; also called DT3H3
Take B9: the binding result with avidin was “no binding”.
